Measurements published in patent US20260242478A1 (published 2026).
Where no end group is shown, it is not given here.

Legend:
006 PSMA Fab [1] = biological target: T1, 006 PSMA Fab (biotinylated (site not given)); test: clonal phage ELISA, biotinylated PSMA Fab on neutravidin plate, anti-M13 HRP detection;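 further: crude clonal phage supernatants added to wells pretreated with blocking buffer either with or without PSMA antigen, bound phage read after washing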
T1 construct: Biotinylated PSMA Fab captured on neutravidin coated plates for the clonal phage ELISA; also called Anti-PSMA Fab

006 PSMA Fab [2] = biological target: T1, 006 PSMA Fab; test: clonal phage ELISA on plate-bound PSMA Fab, competitor: PSMA antigen pre-incubated in the wells
Method: (§1) Clonal phage were harvested as crude supernatants and screened via standard ELISAs. […] Prior to the addition of clonal phage. wells were incubated with blocking buffer and PSMA antigen or blocking buffer alone. Without washing or aspirating, clonal phage supernatants were then added to the wells and incubated for a short time. Wells were then washed followed by detection of bound phage using a horse radish conjugated anti-M13 antibody.

PSMA Fab (006 PSMA Fab) [3] = biological target: T2, PSMA Fab (006 PSMA Fab); test: clonal phage ELISA; biotinylated PSMA Fab on neutravidin plate, wells pre-incubated with PSMA antigen as competitor; anti-M13 HRP detection;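 further: crude clonal phage supernatants added to antigen-treated wells without a wash, incubated briefly, then bound phage read out via horse radish–conjugated anti-M13 antibody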
T2 construct: also called Anti-PSMA Fab; anti-PSMA Fab
Method: as §1

PSMA Fab (006 PSMA Fab) [4] = biological target: T2, PSMA Fab (006 PSMA Fab); test: clonal phage ELISA; biotinylated PSMA Fab on neutravidin plate, blocking buffer alone; anti-M13 HRP detection;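 further: crude clonal phage supernatants added without washing to wells pretreated with blocking buffer with or without PSMA antigen, short incubation, then washed before detecting bound phage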
Method: as §1

PSMA Fab [5] = biological target: T3, PSMA Fab (biotinylated (site not stated)); test: phage ELISA; biotinylated PSMA Fab on neutravidin plate, clonal phage supernatant, anti-M13-HRP detection;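 further: wells were preincubated with blocking buffer containing PSMA antigen or with blocking buffer only, then phage supernatant was added without washing for a brief incubation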
T3 construct: Biotinylated PSMA Fab captured on neutravidin plates in the phage ELISA; also called Anti-PSMA Fab; 006 PSMA Fab

PSMA Fab [6] = biological target: T3, PSMA Fab; test: phage ELISA; PSMA Fab-coated wells pre-incubated with PSMA antigen as competitor, anti-M13-HRP detection
Method: as §1

Binder	Phage binding ELISA signal, Anti-PSMA Fab in presence of PSMA antigen (PSMA Fab (006 PSMA Fab) [3])	Phage binding ELISA signal, Anti-PSMA Fab (PSMA Fab (006 PSMA Fab) [4])	Phage binding ELISA signal, Anti-PSMA Fab (PSMA Fab [5])	Phage binding ELISA signal, Anti-PSMA Fab with PSMA antigen (PSMA Fab [6])	also measured
VQMLCIPAWMCGME (cysteine pairing not given here; also: displayed on phage as fusion to pIII, pIII and linker sequence not given here, not shown: fused to pIII of the bacteriophage) [Phage-2506]					Phage binding ELISA signal, Anti-PSMA Fab (006 PSMA Fab [1]): 1.2; Phage binding ELISA signal, Anti-PSMA Fab in presence of PSMA (006 PSMA Fab [2]): 0.107
VITWCTPPWMCSGW (Row prints V I T W - T - P - - - S - W) [Phage-2525]	0.0911	1.17			
FENWCTPKWMCIGV [Phage-2548]			1.14	0.102	
TYKMCIPAWKCAVS (cysteine pairing not given here; also: fused to phage pIII, linker and fusion site not given here, not shown: fused to pIII of the bacteriophage) [Phage-2509]					Phage binding ELISA signal, Anti-PSMA Fab (006 PSMA Fab [1]): 1.19; Phage binding ELISA signal, Anti-PSMA Fab in presence of PSMA (006 PSMA Fab [2]): 0.0792
LYNWCTPAWMCYGY [Phage-2545]			1.15	0.284	
IDPRCIPEWMCIGY (Row prints - D P R - I - E - - - I - Y) [Phage-2518]	0.0633	1.18			
SEHWCIPQWMCQSV (cysteine pairing not given here; also: fused to phage pIII, linker and fusion site not given here) [Phage-2543]			1.15	0.114	
LTQWCIPQWMCEGS (Row prints L T Q W - I - Q - - - E - S) [Phage-2515]	0.0537	1.18			
VERLCKPLWMCQER (cysteine pairing not given here; also: fused to phage pIII, linker and fusion site not given here, not shown: fused to pIII of the bacteriophage) [Phage-2507]					Phage binding ELISA signal, Anti-PSMA Fab (006 PSMA Fab [1]): 1.2; Phage binding ELISA signal, Anti-PSMA Fab in presence of PSMA (006 PSMA Fab [2]): 0.0748
HERSCIPAWMCWRQ (Row prints H E R S - I - A - - - W R Q) [Phage-2522]	0.0706	1.18			
LVKLCSPEWMCVGM (cysteine pairing not given here; also: fused to phage pIII, linker and fusion site not given here, not shown: fused to pIII of the bacteriophage) [Phage-2511]					Phage binding ELISA signal, Anti-PSMA Fab (006 PSMA Fab [1]): 1.19; Phage binding ELISA signal, Anti-PSMA Fab in presence of PSMA (006 PSMA Fab [2]): 0.0667
EVKWCIPDWMCSVI (cysteine pairing not given here; also: fused to phage pIII, linker and fusion site not given here, not shown: fused to pIII of the bacteriophage) [Phage-2510]					Phage binding ELISA signal, Anti-PSMA Fab (006 PSMA Fab [1]): 1.19; Phage binding ELISA signal, Anti-PSMA Fab in presence of PSMA (006 PSMA Fab [2]): 0.0782
AEYWCIPRWMCSQH [Phage-2552]			1.14	0.0882	
VPKWCTPAWMCTGL (Row prints V P K W - T - A - - - T - L) [Phage-2516]	0.0721	1.18			
LGKMCIPLWMCDGL (Row prints L G K M - I - L - - - D - L) [Phage-2512]	0.0573	1.19			
AVKWCTPAWMCSGF (Row prints A V K W - T - A - - - S - -) [Phage-2524]	0.0682	1.18			
ESHWCIPAWMCEQF [Phage-2546]			1.14	0.0589	
SLELCRPEWMCVGF (Row prints S L E - - R - E - - - V - -) [Phage-2513]	0.0955	1.19			
VPIWCTPEWMCSGF (Row prints V P I W - T - E - - - S - -) [Phage-2519]	0.0879	1.18			

Binder	Phage binding ELISA signal, Anti-PSMA Fab in presence of PSMA antigen (PSMA Fab (006 PSMA Fab) [3])	Phage binding ELISA signal, Anti-PSMA Fab (PSMA Fab (006 PSMA Fab) [4])	Phage binding ELISA signal, Anti-PSMA Fab (PSMA Fab [5])	Phage binding ELISA signal, Anti-PSMA Fab with PSMA antigen (PSMA Fab [6])	also measured
LQTWCIPPWMCEGG [Phage-2556]			1.12	0.0675	
EIKWCTPAWMCAIN (Row prints E I K W - T - A - - - - I N) [Phage-2514]	0.0972	1.18			
PLKWCIPQWMCTEA [Phage-2544]			1.15	0.0825	
MFKWCTPQWMCETM [Phage-2554]			1.13	0.124	
EGKWCIPDWMCAAH (cysteine pairing not given here; also: fused to phage pIII, linker and fusion site not given here) [Phage-2547]			1.14	0.0598	
IVRWCTPEWMCVGF (Row prints - V R W - T - E - - - V - -) [Phage-2523]	0.0674	1.18			
IPKWCTPSWMCEWV (cysteine pairing not given here; also: displayed on phage as fusion to pIII, pIII and linker sequence not given here, not shown: fused to pIII of the bacteriophage) [Phage-2504]					Phage binding ELISA signal, Anti-PSMA Fab (006 PSMA Fab [1]): 1.2; Phage binding ELISA signal, Anti-PSMA Fab in presence of PSMA (006 PSMA Fab [2]): 0.0916
LGKWCIPDWMCSGL (cysteine pairing not given here; also: displayed on phage as fusion to pIII, pIII and linker sequence not given here, not shown: fused to pIII of the bacteriophage) [Phage-2505]					Phage binding ELISA signal, Anti-PSMA Fab (006 PSMA Fab [1]): 1.2; Phage binding ELISA signal, Anti-PSMA Fab in presence of PSMA (006 PSMA Fab [2]): 0.144
WEKWCTPSWMCSAG (Row prints W E K W - T - S - - - S A G) [Phage-2526]	0.0743	1.17			
DNKWCIPEWMCFAS (Row prints D N K W - I - E - - - F A S) [Phage-2521]	0.0796	1.18			
FHEWCIPSWMCFKE [Phage-2550]			1.14	0.0984	
GEKACIPAWMCSEN [Phage-2553]			1.13	0.0736	
EPKWCTPPWMCQSV [Phage-2551]			1.14	0.0734	
PIPLCIPLWMCEER (Row prints P I P - - I - L - - - E E R) [Phage-2520]	0.0838	1.18			
VDNWCTPMWMCAWI (Row prints V D N W - T - M - - - - W I) [Phage-2517]	0.109	1.18			
VQKWCIPPWMCTHI [Phage-2549]			1.14	0.0958	
VLKWCTPAWMCTGF [Phage-2557]			1.12	0.0805	
HPSWCTPAWMCQGF (cysteine pairing not given here; also: fused to phage pIII, linker and fusion site not given here, not shown: fused to pIII of the bacteriophage) [Phage-2508]					Phage binding ELISA signal, Anti-PSMA Fab (006 PSMA Fab [1]): 1.2; Phage binding ELISA signal, Anti-PSMA Fab in presence of PSMA (006 PSMA Fab [2]): 0.0911
TQKLCIPEWMCEAM [Phage-2555]			1.12	0.0698	
